In US20220162305A1 (IMCHECK THERAPEUTICS, published 2022):
Blank lines part the entries; values can stand above or below the binder they belong to.

Experiments:
[1] = molecular target: T1, recombinant human BTN2A1-Fc fusion protein (GTP Technologies) (human, UniProt Q7KYR7 29-248, biotinylated with EZ-Link NHS-PEG4 biotin for the Octet affinity assay (sites not given)); assay: ELISA, huBTN2A1-Fc coated at 5 µg/mL, mAb titrated, goat anti-mouse IgG HRP, absorbance at 405 nm
T1 construct: Bought soluble Fc fusion; Used biotinylated in Octet, unmodified in ELISA and cross-linking MS; also called rhBTN2A1-Fc; huBTN2A1-Fc; not shown: Fc part of the bought fusion protein
T1 sequence: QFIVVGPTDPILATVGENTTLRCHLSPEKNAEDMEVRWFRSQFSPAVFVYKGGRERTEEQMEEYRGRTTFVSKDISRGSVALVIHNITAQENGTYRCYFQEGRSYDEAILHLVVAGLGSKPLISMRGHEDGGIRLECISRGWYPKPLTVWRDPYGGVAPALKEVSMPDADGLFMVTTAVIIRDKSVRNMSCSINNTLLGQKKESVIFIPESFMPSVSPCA

[2] = molecular target: T2, biotinylated recombinant human BTN2A2-Fc (R&D Systems) (human, UniProt Q8WVV5 33-265, limits assumed, biotinylated (sites not given)); assay: BLI (Octet Red96), chimeric mAb on FAB2G sensors, biotinylated rhBTN2A2-Fc as analyte, 30 °C, 2:1 model
T2 construct: Bought soluble Fc fusion; also called rhBTN2A2-Fc; not shown: Fc part of the bought fusion protein
T2 sequence: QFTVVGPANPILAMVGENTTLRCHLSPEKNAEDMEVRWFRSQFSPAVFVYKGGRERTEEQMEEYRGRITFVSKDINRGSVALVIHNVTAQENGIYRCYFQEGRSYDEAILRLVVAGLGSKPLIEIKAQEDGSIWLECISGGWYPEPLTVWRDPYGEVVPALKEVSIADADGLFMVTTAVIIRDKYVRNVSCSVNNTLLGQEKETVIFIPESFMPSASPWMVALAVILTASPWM

[3] = molecular target: T1, recombinant human BTN2A1-Fc fusion …; assay: BLI (Octet Red96), biotinylated rhBTN2A1-Fc on streptavidin sensors, chimeric mAb as analyte, 30 °C, 1:1 model
Description: Affinity and binning experiments were performed on an Octet Red96 platform (Fortebio/PALL), system based on Bio-layer interferometry (BLI) technology. For affinity experiments, recombinant human (rh)BTN2A1-Fc (GTP) was biotinylated using EZ-Link™ NHS-PEG4 Biotinylation Kit according to manufacturer's instructions, and biotinylated rhBTN2A2-Fc was purchased from R&D Systems. […] For BTN2A2 affinity assays, chimeric anti-BTN2A antibodies were loaded into FAB2G sensors (anti human CH1; Fortebio) as described above, and biotinylated rhBTN2A2-Fc was used as analyte. In both cases, analytes remained in solution and their working concentrations were diluted in Kinetic Buffer 10× (ForteBio). […] All runs (including loading, equilibration, association/dipping of sensors into analyte, dissociation and regeneration) were performed at 30° C. with shaking 1000 rpm. Analysis was performed using a 1:1 or 2:1 Langmuir model (for BTN2A1 or BTN2A2, respectively) calculated by Octet software, which allowed a better fitting calculation.

[4] = molecular target: T3, human BTN2A1-CFP fusion protein expressed on HEK-293T BTN2 KO cells (human, UniProt Q7KYR7 29-527); assay: flow cytometry, MFI on CFP+ HEK-293T BTN2 KO cells transfected with BTN2A1-CFP, 5 ng/mL to 75 µg/mL mAb
T3 construct: not shown: CFP tag; printed as 'CFP(Nter)-fusion' and as 'BTN2A1-CFP'
T3 sequence: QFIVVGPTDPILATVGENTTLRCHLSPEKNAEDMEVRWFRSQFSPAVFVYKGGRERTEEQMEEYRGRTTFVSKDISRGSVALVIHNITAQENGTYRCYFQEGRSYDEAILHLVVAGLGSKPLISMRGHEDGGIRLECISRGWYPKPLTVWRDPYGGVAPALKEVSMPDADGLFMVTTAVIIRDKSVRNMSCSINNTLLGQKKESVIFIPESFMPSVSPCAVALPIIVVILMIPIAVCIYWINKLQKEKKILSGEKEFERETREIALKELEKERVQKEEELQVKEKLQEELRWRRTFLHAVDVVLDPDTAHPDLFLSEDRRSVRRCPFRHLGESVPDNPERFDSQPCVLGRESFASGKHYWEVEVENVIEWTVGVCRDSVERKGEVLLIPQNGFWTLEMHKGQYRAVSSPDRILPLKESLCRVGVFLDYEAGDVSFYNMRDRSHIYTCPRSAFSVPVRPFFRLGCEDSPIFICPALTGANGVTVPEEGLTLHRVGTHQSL

[5] = molecular target: T2, biotinylated recombinant human …; assay: BLI (Octet Red96), chimeric mAb on FAB2G sensors, biotinylated rhBTN2A2-Fc as analyte
Description: After generation of the reference anti-BTN2A antibodies in chimeric IgG1 format, affinities for the 2 different isoforms of this target (BTN2A1 and BTN2A2) were evaluated and competition assays were performed to determine whether these mAbs recognized the same epitope region of BTN2A1. Affinity and binning experiments were performed on an Octet Red96 platform (Fortebio/PALL), system based on Bio-layer interferometry (BLI) technology. For affinity experiments, recombinant human (rh)BTN2A1-Fc (GTP) was biotinylated using EZ-Link™ NHS-PEG4 Biotinylation Kit according to manufacturer's instructions, and biotinylated rhBTN2A2-Fc was purchased from R&D Systems. […] For BTN2A2 affinity assays, chimeric anti-BTN2A antibodies were loaded into FAB2G sensors (anti human CH1; Fortebio) as described above, and biotinylated rhBTN2A2-Fc was used as analyte. In both cases, analytes remained in solution and their working concentrations were diluted in Kinetic Buffer 10× (ForteBio). […] All runs (including loading, equilibration, association/dipping of sensors into analyte, dissociation and regeneration) were performed at 30° C. with shaking 1000 rpm. Analysis was performed using a 1:1 or 2:1 Langmuir model (for BTN2A1 or BTN2A2, respectively) calculated by Octet software, which allowed a better fitting calculation.

EC50 [1]: 0.82 nM
Kd [2]: 4.4 nM
Kd [3]: 0.041 nM
B1: chimeric anti-BTN2A mAb1 (101G5), chimeric IgG1 format (antibody, V domains shown)
VH: EVQLQQSGPELVKPGASVKISCKASGYSFTVYYMLWVKQSPEKSLEWIGEINPSTGGTTYNQKFKAKATLTVDKSSSTAYMQLKSLTSEDSAVYYCARGPSFYALDYWGQGTSVTVSS
VL: EIVLTQSPTTMAASPGEKITITCSATSSISSNYLHWYRHKPGFSPKLLIYRTSNLASGVPGRFSGSGSGTSYSLTIGTMEAEDVATYYCQQGSSIPRTFGGGTKLEIK
notes: Chimeric IgG1 (isotype control human IgG1), made in HEK-293 cells; also called anti-BTN2A 101G5

EC50 [4]: 0.32 µg/mL
B2: purified anti-BTN2A1 107G3 mAb (mouse hybridoma antibody) (antibody, V domains shown)
VH: QVQLKESGPGLVAPSQSLSITCTVSGFSLTNYVISWVRQPPGKGLEWLGVIWTGGDTNYNSALKSRLSISKDNSKSQVFLKMNSLQTGDTARYYCARGGQLGLRGYWGQGTLVTVSA
VL: DIVLTQSPASLAVSLGQRATISCRASKTVSSSGYSYMHWYQQKPGQPPKLLIYLASNLESGVPARFSGSGSGTDFTLNIHPVEEEDAATYYCQHSRDLPYAFGGGTKLEIK
notes: Mouse antibody purified from hybridoma; mouse IgG1 served as its isotype control; also called anti-BTN2A1 mAb 107G3

binding result [5]: no binding (tested: 200 nM)
EC50 [1]: 0.56 nM
Kd [3]: 0.41 nM
B3: chimeric anti-BTN2A mAb2 (107G3), chimeric IgG1 format (antibody, V domains shown)
VH: B2 VH
VL: B2 VL
notes: Murine VH and VK cloned into heavy and light chain expression vectors, chimeric IgG1 (isotype control human IgG1), made in HEK-293 cells; also called anti-BTN2A 107G3
